The assay addresses ptn13_human PTPN13 (UniProt Q12923).

Chain of ptn13_human PTPN13 (Q12923 whole entry): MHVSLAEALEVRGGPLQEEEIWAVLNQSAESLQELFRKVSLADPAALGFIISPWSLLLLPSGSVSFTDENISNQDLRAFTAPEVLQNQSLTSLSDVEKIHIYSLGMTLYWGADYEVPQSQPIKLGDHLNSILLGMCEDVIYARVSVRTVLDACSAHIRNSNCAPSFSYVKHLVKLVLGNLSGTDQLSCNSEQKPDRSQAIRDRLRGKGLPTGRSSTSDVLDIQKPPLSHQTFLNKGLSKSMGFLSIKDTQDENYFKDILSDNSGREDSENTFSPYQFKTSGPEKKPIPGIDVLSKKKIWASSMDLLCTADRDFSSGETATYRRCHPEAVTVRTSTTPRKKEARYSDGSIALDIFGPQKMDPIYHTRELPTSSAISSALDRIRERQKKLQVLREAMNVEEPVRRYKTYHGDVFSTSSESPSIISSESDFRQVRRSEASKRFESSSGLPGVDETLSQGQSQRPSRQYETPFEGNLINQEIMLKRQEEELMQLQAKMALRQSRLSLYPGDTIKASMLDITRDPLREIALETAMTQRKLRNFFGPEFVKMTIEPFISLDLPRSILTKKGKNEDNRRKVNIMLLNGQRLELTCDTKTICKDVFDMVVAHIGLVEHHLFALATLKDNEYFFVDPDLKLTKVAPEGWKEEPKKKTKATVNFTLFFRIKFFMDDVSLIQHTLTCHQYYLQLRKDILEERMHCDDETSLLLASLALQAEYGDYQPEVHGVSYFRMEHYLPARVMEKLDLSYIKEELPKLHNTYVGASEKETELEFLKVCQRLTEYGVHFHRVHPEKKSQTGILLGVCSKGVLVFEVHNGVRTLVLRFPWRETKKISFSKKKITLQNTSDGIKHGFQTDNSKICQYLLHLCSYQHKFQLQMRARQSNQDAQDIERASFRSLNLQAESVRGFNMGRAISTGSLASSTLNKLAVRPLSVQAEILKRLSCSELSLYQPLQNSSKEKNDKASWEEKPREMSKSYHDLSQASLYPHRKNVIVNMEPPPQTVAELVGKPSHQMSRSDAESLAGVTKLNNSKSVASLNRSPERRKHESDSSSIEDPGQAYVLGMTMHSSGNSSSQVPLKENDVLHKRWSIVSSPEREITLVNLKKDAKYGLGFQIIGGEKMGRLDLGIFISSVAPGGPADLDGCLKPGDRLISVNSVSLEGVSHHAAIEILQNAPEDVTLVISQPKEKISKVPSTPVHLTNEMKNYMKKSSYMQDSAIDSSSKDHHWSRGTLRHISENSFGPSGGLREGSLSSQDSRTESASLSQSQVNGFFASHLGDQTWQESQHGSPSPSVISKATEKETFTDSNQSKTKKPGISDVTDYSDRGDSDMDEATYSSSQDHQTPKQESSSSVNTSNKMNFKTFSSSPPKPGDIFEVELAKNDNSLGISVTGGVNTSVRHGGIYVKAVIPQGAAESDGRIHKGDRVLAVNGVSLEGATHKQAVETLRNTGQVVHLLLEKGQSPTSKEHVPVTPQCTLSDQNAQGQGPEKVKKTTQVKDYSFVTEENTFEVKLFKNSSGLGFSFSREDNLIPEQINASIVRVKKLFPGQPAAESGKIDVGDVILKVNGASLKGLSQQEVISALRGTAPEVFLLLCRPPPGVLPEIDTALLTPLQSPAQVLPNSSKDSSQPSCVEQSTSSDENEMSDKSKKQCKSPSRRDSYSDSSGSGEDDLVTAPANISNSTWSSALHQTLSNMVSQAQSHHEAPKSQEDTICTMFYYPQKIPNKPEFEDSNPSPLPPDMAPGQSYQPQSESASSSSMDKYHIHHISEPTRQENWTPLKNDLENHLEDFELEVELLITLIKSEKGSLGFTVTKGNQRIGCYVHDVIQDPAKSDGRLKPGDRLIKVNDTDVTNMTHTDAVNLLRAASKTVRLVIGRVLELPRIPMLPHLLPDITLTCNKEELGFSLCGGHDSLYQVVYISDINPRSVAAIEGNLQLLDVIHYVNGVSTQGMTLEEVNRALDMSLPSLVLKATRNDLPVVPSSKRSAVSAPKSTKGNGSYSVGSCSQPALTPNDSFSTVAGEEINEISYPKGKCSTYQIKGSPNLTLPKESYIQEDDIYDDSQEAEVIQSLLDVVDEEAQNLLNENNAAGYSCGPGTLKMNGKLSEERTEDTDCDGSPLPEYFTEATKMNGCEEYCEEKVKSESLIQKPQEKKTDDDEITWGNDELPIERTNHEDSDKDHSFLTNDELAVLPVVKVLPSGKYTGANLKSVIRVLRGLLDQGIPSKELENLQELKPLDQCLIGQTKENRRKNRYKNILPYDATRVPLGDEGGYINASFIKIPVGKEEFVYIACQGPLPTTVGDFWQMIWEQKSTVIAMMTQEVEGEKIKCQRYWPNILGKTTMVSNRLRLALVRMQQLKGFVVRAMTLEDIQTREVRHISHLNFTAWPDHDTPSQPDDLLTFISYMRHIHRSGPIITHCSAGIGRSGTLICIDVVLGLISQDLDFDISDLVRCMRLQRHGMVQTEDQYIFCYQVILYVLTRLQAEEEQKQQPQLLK

On to “Serine/threonine-protein kinase N2 (Homo sapiens), Q16513 C984S”, for which the “effect of a mutation on the interaction” value is listed as “disrupting interaction”.

The values are drawn from IntAct's records for PubMed 11356191.
